In publication PMC5227068, “Pathogenicity Determinants of the Human Malaria Parasite Plasmodium falciparum Have Ancient Origins” (mSphere, 2017):

T1: recombinant human endothelial protein C receptor (human, UniProt Q9UNN8 18-238)
T1 construct: endothelial protein C receptor, human, recombinant; also called EPCR; human EPCR
T1 sequence (looked up): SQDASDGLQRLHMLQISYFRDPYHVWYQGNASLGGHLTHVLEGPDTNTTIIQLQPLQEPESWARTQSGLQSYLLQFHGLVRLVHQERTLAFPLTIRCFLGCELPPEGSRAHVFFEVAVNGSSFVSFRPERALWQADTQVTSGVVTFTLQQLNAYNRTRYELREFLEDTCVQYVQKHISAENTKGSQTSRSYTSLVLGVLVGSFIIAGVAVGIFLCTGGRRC

B1: P. reichenowi CDO61774.1 CIDRα1.4 (domain or fragment)
chain: TEIKVIVSGNEQGDISKKLEDFCSDENNENGKNYQKWECYYKSSQNNKCKMETKSGTSITEEKVTSFDAFFDLWVKNLLRDSIKWETELKDCINNSNVTDCNNDCNKNCVCFDKWVKQKEEVWKNMKTVLGNQKENLDNYYNKLNGLFKGFFFPVMFELNHDEAKWNKLMENLKKKIESSKENRGTVNSQDAIELLLEYLKEKSTICKDNNTN
B2: P. reichenowi CDO62090.1 CIDRα1.4 (domain or fragment)
chain: TKINVLYSGDKQGDITQKLQNFCSDENKENGTNYQKWECYYKDEKQNKCKMDKTSGKNMTEDKIMSFDEFFYSWVTNFLIDTINWENELKNCMNNTILTDCNDGCKINCVCFDKWVKQKENEWENVKKVFENKNGISDNYYNKLKYIFEGFFFQVLYKLNQDEAKWNQLKQKLKEIIVSSKANTGKEHSQDAIKPLLEYIKEKSTICKDNNTN
B3: recombinant human EPCR (receptor)
chain: SQDASDGLQRLHMLQISYFRDPYHVWYQGNASLGGHLTHVLEGPDTNTTIIQLQPLQEPESWARTQSGLQSYLLQFHGLVRLVHQERTLAFPLTIRCFLGCELPPEGSRAHVFFEVAVNGSSFVSFRPERALWQADTQVTSGVVTFTLQQLNAYNRTRYELREFLEDTCVQYVQKHISAENTKGSQTSRSYTS
B4: recombinant human EPCR (receptor)
chain: B3 chain
modifications: construct limits not given; taken as the soluble extracellular domain after the signal peptide, from the candidate's features

Experiments:
Conditions in all cases: both partners purified
[1] = target: T1, recombinant human endothelial protein C …; assay: BLI; Octet Qke; EPCR on the biosensor, CIDR domain in solution; protocol as reported previously (ref. 40); double-reference subtracted data fitted to a 1:1 binding model
[2] = target: P. reichenowi var71 CIDRα1.4 (Plasmodium reichenowi); assay: BLI; Octet Qke; CIDR domains on recombinant human EPCR, protocol as reported previously (ref. 40); 1:1 fit
[3] = target: T2, P. reichenowi CDO61774.1 CIDRα1.4 (Plasmodium reichenowi, UniProt A0A060RM78 1-3575); assay: as above
T2 construct: CIDRα1.4 domain of the P. reichenowi erythrocyte membrane protein 1 (PrEMP1) of entry CDO61774.1; Construct His6-MBP-TEV-CIDR-StrepII; also called P. reichenowi CD061774.1 CIDRα1.4; Pr CDO61774.1 CIDRα1.4; source: pSHuffle expression hosts (New England Biolabs), purified (two-step process); not shown: StrepII, C-terminal, kept

[4] = target: T3, P. reichenowi CDO62090.1 CIDRα1.4 (Plasmodium reichenowi, UniProt A0A060RMQ3 1-4072); assay: as above
T3 construct: CIDRα1.4 domain of the P. reichenowi erythrocyte membrane protein 1 (PrEMP1) of entry CDO62090.1; Construct His6-MBP-TEV-CIDR-StrepII; also called Pr CDO62090.1 CIDRα1.4; source: pSHuffle expression hosts (New England Biolabs), purified (two-step process); not shown: StrepII, C-terminal, kept

Binder	koff [1]	kon [1]	also measured
B1	0.000293 s⁻¹	47300 M⁻¹ s⁻¹	Kd [1]: 6.2 nM
B2	0.000443 s⁻¹	7350 M⁻¹ s⁻¹	–
B3	–	–	Kd [2]: 23 nM
B4	–	–	Kd [3]: 6 nM; Kd [4]: 60 nM
